Source: patent US20250243265A1

How the values were obtained:
[1] = molecular target: K63-linked diubiquitin (Boston Biochem) (Homo sapiens (Human)) (UniProt P0CG48); assay: western blot, 1 µg/mL IgG, two-fold dilutions of K63-linked diubiquitin
[2] = molecular target: endogenous K63 polyubiquitin linkages in 293T cell lysates (human) (UniProt P0CG48); assay: IP in 7 M urea from LUBAC over-expressing 293T lysate (input 5075), mass spec AQUA
[3] = molecular target: endogenous K48 polyubiquitin linkages in 293T cell lysates (human) (UniProt P0CG48); assay: IP in 7 M urea from LUBAC over-expressing 293T lysate (input 12420), mass spec AQUA

| limit of detection in western blot [1] [ng] | polyubiquitin linkages recovered in the IP [2] [pmol] | polyubiquitin linkages recovered in the IP [3] [pmol] | Substance |
| --- | --- | --- | --- |
| 62 |  |  | Apu3.A8 anti-K63 IgG (antibody) |
|  | 0 | 1 | isotype control IgG (unrelated human kappa IgG1 antibody) |
